The values that follow come from PMC4646227, “Plasticity in PYD assembly revealed by cryo-EM structure of the PYD filament of AIM2” (Cell Discovery, 2015).

Data set [1] has as its target ASC PYD (M1-Q105, S106C), fluorophore-labelled, MBP removed by TEV (UniProt Q9ULZ3). Briefly: fluorescence polarisation; apparent; Alexa Fluor 488-labelled MBP-ASC PYD, same procedure, mCherry-NLRP6 PYD added as nucleator.
For data set [2], the target named is T1, ASC PYD (M1-Q105, S106C), fluorophore-labelled, MBP removed by TEV (UniProt Q9ULZ3 1-106, S106C, Alexa Fluor 568 on the engineered C-terminal Cys (maleimide); Alexa Fluor 488 instead in the experiment with mCherry-NLRP6^PYD).
T1 construct: Apoptosis-associated speck-like protein containing a CARD (ASC), Pyrin domain, M1-Q105 followed by an engineered Cys (S106C); also called labeled MBP-ASC^PYD (before cleavage); source: E. coli BL21(DE3), purified (Ni-NTA, SEC) as monomeric MBP fusion, labelled, MBP removed by TEV in the assay
T1 sequence (Q9ULZ3 1-106 S106C): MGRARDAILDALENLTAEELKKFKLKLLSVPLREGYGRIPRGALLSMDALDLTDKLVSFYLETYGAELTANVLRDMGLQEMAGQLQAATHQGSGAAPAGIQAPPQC
The experiment in a line: fluorescence polarisation; apparent; Alexa568-labelled MBP-ASC PYD, polymerisation started by TEV removal of MBP; initial rates of ASC PYD filament formation plotted against concentrations of added GFP-AIM2 PYD seeds. The note with it: both partners purified.

Data set [3] concerns the molecule itself. Briefly: cryo-EM structure; helical reconstruction of His-GFP-AIM2 PYD filaments; sample in 20 mM HEPES pH 8.0, 150 mM NaCl, 2 mM dithiothreitol.

ASC PYD (M1-Q105, S106C), fluorophore-labelled, MBP removed by TEV (UniProt Q9ULZ3), sequence (Q9ULZ3 1-106 S106C): as above

For the molecule “mCherry-tagged NLRP6 PYD (domain or fragment)”, the Kd in data set [1] is 90 nM.

B1: His-GFP-tagged AIM2 PYD (M1-P100) (domain or fragment, human, UniProt O14862 1-100, looked up)
chain: MESKYKEILLLTGLDNITDEELDRFKFFLSDEFNIATGKLHTANRIQVATLMIQNAGAVSAVMKTIRIFQKLNYMLLAKRLQEEKEKVDKQYKSVTKPKP
notes: Absent in melanoma 2 (AIM2), human, Pyrin domain, residues M1-P100; Non-cleavable His-GFP tag from a pET28a backbone; A two-residue linker from the BamHI site joins GFP and AIM2 PYD; The protein forms filaments; also called GFP-AIM2^PYD; His-GFP-AIM2^PYD; source: E. coli BL21(DE3), purified (Ni-NTA, SEC; void fractions); not shown: His, N-terminal, kept; GFP (monomeric, M1-T230, A206K), …
For the molecule B1, the Kd in data set [2] was roughly 210 nM. Further, the binding result in data set [3] is recorded as “binds”.
